Assay results reported in WO2007030708A2 (dated 2007).

Target: T1, S-TNF, human TNFα fusion protein with an N-terminal S-Tag (human, UniProt P01375 77-233)
T1 construct: Made, expressed and purified by the applicants; not shown: 15 amino acid S-Tag peptide (Novagen)
Assay: indirect ELISA: sp55 from conditioned medium captured on Ni-NTA wells, S-TNF at 1 μg/mL, S-protein-HRP detection, absorbance at 370 nm

T1 sequence (P01375 77-233): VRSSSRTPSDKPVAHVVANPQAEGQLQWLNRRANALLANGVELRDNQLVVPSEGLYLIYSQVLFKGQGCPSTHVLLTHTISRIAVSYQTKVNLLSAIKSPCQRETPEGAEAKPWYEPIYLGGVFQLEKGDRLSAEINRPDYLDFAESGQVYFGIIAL

B1: sp55, soluble TNF receptor p55: ecto-domain of human TNFR-1 (residues 30-211) with C-terminal myc and His6 tags (receptor)
chain: DAAQPARRAVRSLVPHLGDREKRDSVCPQGKYIHPQNNSICCTKCHKGTYLYNDCPGPGQDTDCRECESGSFTASENHLRHCLSCSKCRKEMGQVEISSCTVDRDTVCGCRKNQYRHYWSENLFQCFNCSLCLNGTVHLSCQEKQNTVCTCHAGFFLRENECVSCSNCKKSLECTKLCLPQIENVKGTEDSGTTRGGPEQKLISEEDLNSAVDHHHHHH
notes: Used as conditioned medium of transfected 293T cells; also called p55FL-myc-his; p55L
fold elevation in S-TNF binding over non-specific binding in control samples: 3 fold
